We go through one molecule from patent publication US20200087395 (published 2020).

The target of one experiment is T1, mouse CD200R (mouse, UniProt Q9ES57).
T1 chain: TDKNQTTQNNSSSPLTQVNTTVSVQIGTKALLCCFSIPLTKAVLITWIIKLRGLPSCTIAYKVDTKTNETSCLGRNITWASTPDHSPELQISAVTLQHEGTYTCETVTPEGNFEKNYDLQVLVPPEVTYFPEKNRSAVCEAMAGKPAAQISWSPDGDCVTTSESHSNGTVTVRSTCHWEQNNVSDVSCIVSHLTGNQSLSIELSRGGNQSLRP
Briefly: SPR, 37C.

Experiment [1] concerns the target T2, cynomolgus CD200RLa (activating form) (cynomolgus monkey).
T2 chain: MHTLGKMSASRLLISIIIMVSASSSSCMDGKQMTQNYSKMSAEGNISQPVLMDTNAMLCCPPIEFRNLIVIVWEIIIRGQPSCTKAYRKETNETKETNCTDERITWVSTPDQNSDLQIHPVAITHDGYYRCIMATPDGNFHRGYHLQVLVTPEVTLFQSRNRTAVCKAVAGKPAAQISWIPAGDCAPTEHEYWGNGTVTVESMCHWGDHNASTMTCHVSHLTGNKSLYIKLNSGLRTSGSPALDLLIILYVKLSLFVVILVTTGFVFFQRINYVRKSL
Briefly: FACS. On the technique in general: In flow cytometry, cells or beads pass a laser one at a time.

The next experiment addresses FcγRIIIA_158F ECD (human, UniProt P08637). Briefly: SPR, 25C. (In SPR one partner is held on a chip, and binding of the other changes the refractive index at the surface.)
Experiment [2] addresses T2, cynomolgus CD200RLa (activating form). Put plainly: SPR, 37C.

FcγRIIIA_158F ECD, sequence (P08637 17-208): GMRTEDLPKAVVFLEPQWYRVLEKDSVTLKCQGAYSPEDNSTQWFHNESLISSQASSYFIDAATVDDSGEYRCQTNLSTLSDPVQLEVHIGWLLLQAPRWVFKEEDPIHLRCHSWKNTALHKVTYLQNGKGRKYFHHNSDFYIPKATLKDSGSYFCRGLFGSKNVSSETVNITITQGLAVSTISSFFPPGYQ

B1: Antibody I-4P (antibody)
chain 1: not shown
chain 2: EIVLTQSPDFQSVTPKEKVTITCQASESIDSYLLWYQQKPDQSPKLLIKQASTLASGVPSRFSGSGSGTDFTLTINSLEAEDAATYYCQNYYDISSNDFGGGTKVEIKRTVAAPSVFIFPPSDEQLKSGTASVVCLLNNFYPREAKVQWKVDNALQSGNSQESVTEQDSKDSTYSLSSTLTLSKADYEKHKVYACEVTHQGLSSPVTKSFNRGEC
modifications: listing feature
For B1, the values for the dissociation constant Kd (in the experiment with mouse CD200R; in the experiment with FcγRIIIA_158F ECD; in experiment [2]) were over 10 µM, over 10 µM and 2.5 µM, respectively. Also, the binding result in experiment [1] is given as “no binding”.
